# Test results: PMC6983858, “Biochemical and structural analyses reveal that the tumor suppressor neurofibromin (NF1) forms a high-affinity dimer” (The Journal of Biological Chemistry, 2019)
# T1: neurofibromin EF fragment (1821–2818) (human, UniProt P21359-2 1821-2818)
# T1 construct: neurofibromin, human, NF1 isoform 2 (NM_000267.3); residues 1821-2818; numbers count on: the 2818-residue isoform; TEV cleavage (ENLYFQ/G) probably leaves a G at the N-terminus; also called EF domain; EF(1821–2818); source: Tni-FNL insect cells (baculovirus), purified; not shown: His6, N-terminal, cleaved; MBP, N-terminal, cleaved
# T1 sequence (looked up): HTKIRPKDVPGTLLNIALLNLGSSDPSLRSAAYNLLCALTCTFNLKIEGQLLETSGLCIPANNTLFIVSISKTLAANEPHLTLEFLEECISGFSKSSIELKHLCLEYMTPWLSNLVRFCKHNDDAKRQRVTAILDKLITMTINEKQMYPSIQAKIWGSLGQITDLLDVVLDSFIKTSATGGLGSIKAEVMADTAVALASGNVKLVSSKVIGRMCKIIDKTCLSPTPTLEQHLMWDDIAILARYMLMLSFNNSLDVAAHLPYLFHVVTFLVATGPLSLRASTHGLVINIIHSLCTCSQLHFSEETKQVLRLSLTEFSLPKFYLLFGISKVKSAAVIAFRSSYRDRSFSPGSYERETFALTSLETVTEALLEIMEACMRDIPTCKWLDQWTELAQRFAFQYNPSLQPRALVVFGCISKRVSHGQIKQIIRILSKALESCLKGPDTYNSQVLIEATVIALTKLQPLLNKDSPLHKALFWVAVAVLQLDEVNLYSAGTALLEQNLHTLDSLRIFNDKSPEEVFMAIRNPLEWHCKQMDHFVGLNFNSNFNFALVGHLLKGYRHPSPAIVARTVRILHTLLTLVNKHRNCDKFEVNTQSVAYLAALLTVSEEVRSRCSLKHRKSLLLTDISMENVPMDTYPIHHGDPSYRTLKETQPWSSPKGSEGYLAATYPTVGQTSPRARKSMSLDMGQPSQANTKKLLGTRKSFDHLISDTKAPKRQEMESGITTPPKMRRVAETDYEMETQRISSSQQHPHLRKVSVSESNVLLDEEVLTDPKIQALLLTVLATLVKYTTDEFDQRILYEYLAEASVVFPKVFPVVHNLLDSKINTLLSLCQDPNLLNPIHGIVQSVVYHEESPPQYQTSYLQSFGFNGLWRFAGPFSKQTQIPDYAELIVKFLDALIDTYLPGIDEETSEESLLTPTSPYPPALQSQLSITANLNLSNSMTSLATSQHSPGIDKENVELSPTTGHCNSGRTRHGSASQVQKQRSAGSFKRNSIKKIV
# B1: neurofibromin C* domain (1085–1530) (domain or fragment, human, UniProt P21359-2 1085-1530, looked up)
# chain: LQPEEGDGVELMEAKSQLFLKYFTLFMNLLNDCSEVEDESAQTGGRKRGMSRRLASLRHCTVLAMSNLLNANVDSGLMHSIGLGYHKDLQTRATFMEVLTKILQQGTEFDTLAETVLADRFERLVELVTMMGDQGELPIAMALANVVPCSQWDELARVLVTLFDSRHLLYQLLWNMFSKEVELADSMQTLFRGNSLASKIMTFCFKVYGATYLQKLLDPLLRIVITSSDWQHVSFEVDPTRLEPSESLEENQRNLLQMTEKFFHAIISSSSEFPPQLRSVCHCLYQVVSQRFPQNSIGAVGSAMFLRFINPAIVSPYEAGILDKKPPPRIERGLKLMSKILQSIANHVLFTKEEHMRPFNDFVKSNFDAARRFFLDIASDCPTSDAVNHSLSFISDGNVLALHRLLWNNQEKIGQYLSSNRDHKAVGRRPFDKMATLLAYLGPPEH
# notes: neurofibromin, human, NF1 isoform 2 (NM_000267.3); numbers count on: the 2818-residue isoform; TEV cleavage (ENLYFQ/G) probably leaves a G at the N-terminus; source: Tni-FNL insect cells (baculovirus), purified; not shown: His6, N-terminal, cleaved; MBP, N-terminal, cleaved
# B2: neurofibromin C*D domain (1085–1816) (domain or fragment, human, UniProt P21359-2 1085-1816, looked up)
# chain: LQPEEGDGVELMEAKSQLFLKYFTLFMNLLNDCSEVEDESAQTGGRKRGMSRRLASLRHCTVLAMSNLLNANVDSGLMHSIGLGYHKDLQTRATFMEVLTKILQQGTEFDTLAETVLADRFERLVELVTMMGDQGELPIAMALANVVPCSQWDELARVLVTLFDSRHLLYQLLWNMFSKEVELADSMQTLFRGNSLASKIMTFCFKVYGATYLQKLLDPLLRIVITSSDWQHVSFEVDPTRLEPSESLEENQRNLLQMTEKFFHAIISSSSEFPPQLRSVCHCLYQVVSQRFPQNSIGAVGSAMFLRFINPAIVSPYEAGILDKKPPPRIERGLKLMSKILQSIANHVLFTKEEHMRPFNDFVKSNFDAARRFFLDIASDCPTSDAVNHSLSFISDGNVLALHRLLWNNQEKIGQYLSSNRDHKAVGRRPFDKMATLLAYLGPPEHKPVADTHWSSLNLTSSKFEEFMTRHQVHEKEEFKALKTLSIFYQAGTSKAGNPIFYYVARRFKTGQINGDLLIYHVLLTLKPYYAKPYEIVVDLTHTGPSNRFKTDFLSKWFVVFPGFAYDNVSAVYIYNCNSWVREYTKYHERLLTGLKGSKRLVFIDCPGKLAEHIEHEQQKLPAATLALEEDLKVFHNALKLAHKDTKVSIKVGSTAVQVTSAERTKVLGQSVFLNDIYYASEIEEICLVDENQFTLTIANQGTPLTFMHQECEAIVQSIIHIRTRWELSQPD
# notes: neurofibromin, human, NF1 isoform 2 (NM_000267.3); numbers count on: the 2818-residue isoform; TEV cleavage (ENLYFQ/G) probably leaves a G at the N-terminus; also called CD domains; source: Tni-FNL insect cells (baculovirus), purified; not shown: His6, N-terminal, cleaved; MBP, N-terminal, cleaved
# B3: neurofibromin CDEF fragment (861–2818) (domain or fragment, human, UniProt P21359-2 861-2818, looked up)
# chain: ATYSPPMGPVSERKGSMISVMSSEGNADTPVSKFMDRLLSLMVCNHEKVGLQIRTNVKDLVGLELSPALYPMLFNKLKNTISKFFDSQGQVLLTDTNTQFVEQTIAIMKNLLDNHTEGSSEHLGQASIETMMLNLVRYVRVLGNMVHAIQIKTKLCQLVEVMMARRDDLSFCQEMKFRNKMVEYLTDWVMGTSNQAADDDVKCLTRDLDQASMEAVVSLLAGLPLQPEEGDGVELMEAKSQLFLKYFTLFMNLLNDCSEVEDESAQTGGRKRGMSRRLASLRHCTVLAMSNLLNANVDSGLMHSIGLGYHKDLQTRATFMEVLTKILQQGTEFDTLAETVLADRFERLVELVTMMGDQGELPIAMALANVVPCSQWDELARVLVTLFDSRHLLYQLLWNMFSKEVELADSMQTLFRGNSLASKIMTFCFKVYGATYLQKLLDPLLRIVITSSDWQHVSFEVDPTRLEPSESLEENQRNLLQMTEKFFHAIISSSSEFPPQLRSVCHCLYQVVSQRFPQNSIGAVGSAMFLRFINPAIVSPYEAGILDKKPPPRIERGLKLMSKILQSIANHVLFTKEEHMRPFNDFVKSNFDAARRFFLDIASDCPTSDAVNHSLSFISDGNVLALHRLLWNNQEKIGQYLSSNRDHKAVGRRPFDKMATLLAYLGPPEHKPVADTHWSSLNLTSSKFEEFMTRHQVHEKEEFKALKTLSIFYQAGTSKAGNPIFYYVARRFKTGQINGDLLIYHVLLTLKPYYAKPYEIVVDLTHTGPSNRFKTDFLSKWFVVFPGFAYDNVSAVYIYNCNSWVREYTKYHERLLTGLKGSKRLVFIDCPGKLAEHIEHEQQKLPAATLALEEDLKVFHNALKLAHKDTKVSIKVGSTAVQVTSAERTKVLGQSVFLNDIYYASEIEEICLVDENQFTLTIANQGTPLTFMHQECEAIVQSIIHIRTRWELSQPDSIPQHTKIRPKDVPGTLLNIALLNLGSSDPSLRSAAYNLLCALTCTFNLKIEGQLLETSGLCIPANNTLFIVSISKTLAANEPHLTLEFLEECISGFSKSSIELKHLCLEYMTPWLSNLVRFCKHNDDAKRQRVTAILDKLITMTINEKQMYPSIQAKIWGSLGQITDLLDVVLDSFIKTSATGGLGSIKAEVMADTAVALASGNVKLVSSKVIGRMCKIIDKTCLSPTPTLEQHLMWDDIAILARYMLMLSFNNSLDVAAHLPYLFHVVTFLVATGPLSLRASTHGLVINIIHSLCTCSQLHFSEETKQVLRLSLTEFSLPKFYLLFGISKVKSAAVIAFRSSYRDRSFSPGSYERETFALTSLETVTEALLEIMEACMRDIPTCKWLDQWTELAQRFAFQYNPSLQPRALVVFGCISKRVSHGQIKQIIRILSKALESCLKGPDTYNSQVLIEATVIALTKLQPLLNKDSPLHKALFWVAVAVLQLDEVNLYSAGTALLEQNLHTLDSLRIFNDKSPEEVFMAIRNPLEWHCKQMDHFVGLNFNSNFNFALVGHLLKGYRHPSPAIVARTVRILHTLLTLVNKHRNCDKFEVNTQSVAYLAALLTVSEEVRSRCSLKHRKSLLLTDISMENVPMDTYPIHHGDPSYRTLKETQPWSSPKGSEGYLAATYPTVGQTSPRARKSMSLDMGQPSQANTKKLLGTRKSFDHLISDTKAPKRQEMESGITTPPKMRRVAETDYEMETQRISSSQQHPHLRKVSVSESNVLLDEEVLTDPKIQALLLTVLATLVKYTTDEFDQRILYEYLAEASVVFPKVFPVVHNLLDSKINTLLSLCQDPNLLNPIHGIVQSVVYHEESPPQYQTSYLQSFGFNGLWRFAGPFSKQTQIPDYAELIVKFLDALIDTYLPGIDEETSEESLLTPTSPYPPALQSQLSITANLNLSNSMTSLATSQHSPGIDKENVELSPTTGHCNSGRTRHGSASQVQKQRSAGSFKRNSIKKIV
# notes: neurofibromin, human, NF1 isoform 2 (NM_000267.3); residues 861-2818; numbers count on: the 2818-residue isoform; TEV cleavage (ENLYFQ/G) probably leaves a G at the N-terminus; also called NF1-CDEF; NF1(861–2818); source: Tni-FNL insect cells (baculovirus), purified; not shown: His6, N-terminal, cleaved; MBP, N-terminal, cleaved
# B4: neurofibromin DEF fragment (1541–2818) (domain or fragment, human, UniProt P21359-2 1541-2818, looked up)
# chain: LNLTSSKFEEFMTRHQVHEKEEFKALKTLSIFYQAGTSKAGNPIFYYVARRFKTGQINGDLLIYHVLLTLKPYYAKPYEIVVDLTHTGPSNRFKTDFLSKWFVVFPGFAYDNVSAVYIYNCNSWVREYTKYHERLLTGLKGSKRLVFIDCPGKLAEHIEHEQQKLPAATLALEEDLKVFHNALKLAHKDTKVSIKVGSTAVQVTSAERTKVLGQSVFLNDIYYASEIEEICLVDENQFTLTIANQGTPLTFMHQECEAIVQSIIHIRTRWELSQPDSIPQHTKIRPKDVPGTLLNIALLNLGSSDPSLRSAAYNLLCALTCTFNLKIEGQLLETSGLCIPANNTLFIVSISKTLAANEPHLTLEFLEECISGFSKSSIELKHLCLEYMTPWLSNLVRFCKHNDDAKRQRVTAILDKLITMTINEKQMYPSIQAKIWGSLGQITDLLDVVLDSFIKTSATGGLGSIKAEVMADTAVALASGNVKLVSSKVIGRMCKIIDKTCLSPTPTLEQHLMWDDIAILARYMLMLSFNNSLDVAAHLPYLFHVVTFLVATGPLSLRASTHGLVINIIHSLCTCSQLHFSEETKQVLRLSLTEFSLPKFYLLFGISKVKSAAVIAFRSSYRDRSFSPGSYERETFALTSLETVTEALLEIMEACMRDIPTCKWLDQWTELAQRFAFQYNPSLQPRALVVFGCISKRVSHGQIKQIIRILSKALESCLKGPDTYNSQVLIEATVIALTKLQPLLNKDSPLHKALFWVAVAVLQLDEVNLYSAGTALLEQNLHTLDSLRIFNDKSPEEVFMAIRNPLEWHCKQMDHFVGLNFNSNFNFALVGHLLKGYRHPSPAIVARTVRILHTLLTLVNKHRNCDKFEVNTQSVAYLAALLTVSEEVRSRCSLKHRKSLLLTDISMENVPMDTYPIHHGDPSYRTLKETQPWSSPKGSEGYLAATYPTVGQTSPRARKSMSLDMGQPSQANTKKLLGTRKSFDHLISDTKAPKRQEMESGITTPPKMRRVAETDYEMETQRISSSQQHPHLRKVSVSESNVLLDEEVLTDPKIQALLLTVLATLVKYTTDEFDQRILYEYLAEASVVFPKVFPVVHNLLDSKINTLLSLCQDPNLLNPIHGIVQSVVYHEESPPQYQTSYLQSFGFNGLWRFAGPFSKQTQIPDYAELIVKFLDALIDTYLPGIDEETSEESLLTPTSPYPPALQSQLSITANLNLSNSMTSLATSQHSPGIDKENVELSPTTGHCNSGRTRHGSASQVQKQRSAGSFKRNSIKKIV
# notes: neurofibromin, human, NF1 isoform 2 (NM_000267.3); numbers count on: the 2818-residue isoform; TEV cleavage (ENLYFQ/G) probably leaves a G at the N-terminus; also called NF1-DEF; source: Tni-FNL insect cells (baculovirus), purified; not shown: His6, N-terminal, cleaved; MBP, N-terminal, cleaved
# Assays:
# [1] = target: T1, neurofibromin EF fragment (1821–2818); test: SEC; equimolar mixtures of two purified NF1 fragments on an analytical SEC column, fractions analysed by SDS-PAGE; conditions: both partners purified
# [2] = target: the molecule itself; test: AUC; sedimentation velocity of CDEF, 2.2 to 8.8 μM, 40,000 rpm, 20 °C, 300 mM NaCl, 20 mM HEPES-NaOH pH 7.3, 5 mM TCEP
# [3] = target: T2, neurofibromin ABC fragment (2–1540) (human, UniProt P21359-2 2-1540); test: SEC; equimolar mixtures of two purified NF1 fragments on an analytical SEC column, fractions analysed by SDS-PAGE; conditions: both partners purified
# T2 construct: neurofibromin, human, NF1 isoform 2 (NM_000267.3); numbers count on: the 2818-residue isoform; TEV cleavage (ENLYFQ/G) probably leaves a G at the N-terminus; also called NF1-ABC; source: Tni-FNL insect cells (baculovirus), purified; not shown: His6, N-terminal, cleaved; MBP, N-terminal, cleaved
# T2 sequence (P21359 other isoform, or with tags, fused parts or gaps): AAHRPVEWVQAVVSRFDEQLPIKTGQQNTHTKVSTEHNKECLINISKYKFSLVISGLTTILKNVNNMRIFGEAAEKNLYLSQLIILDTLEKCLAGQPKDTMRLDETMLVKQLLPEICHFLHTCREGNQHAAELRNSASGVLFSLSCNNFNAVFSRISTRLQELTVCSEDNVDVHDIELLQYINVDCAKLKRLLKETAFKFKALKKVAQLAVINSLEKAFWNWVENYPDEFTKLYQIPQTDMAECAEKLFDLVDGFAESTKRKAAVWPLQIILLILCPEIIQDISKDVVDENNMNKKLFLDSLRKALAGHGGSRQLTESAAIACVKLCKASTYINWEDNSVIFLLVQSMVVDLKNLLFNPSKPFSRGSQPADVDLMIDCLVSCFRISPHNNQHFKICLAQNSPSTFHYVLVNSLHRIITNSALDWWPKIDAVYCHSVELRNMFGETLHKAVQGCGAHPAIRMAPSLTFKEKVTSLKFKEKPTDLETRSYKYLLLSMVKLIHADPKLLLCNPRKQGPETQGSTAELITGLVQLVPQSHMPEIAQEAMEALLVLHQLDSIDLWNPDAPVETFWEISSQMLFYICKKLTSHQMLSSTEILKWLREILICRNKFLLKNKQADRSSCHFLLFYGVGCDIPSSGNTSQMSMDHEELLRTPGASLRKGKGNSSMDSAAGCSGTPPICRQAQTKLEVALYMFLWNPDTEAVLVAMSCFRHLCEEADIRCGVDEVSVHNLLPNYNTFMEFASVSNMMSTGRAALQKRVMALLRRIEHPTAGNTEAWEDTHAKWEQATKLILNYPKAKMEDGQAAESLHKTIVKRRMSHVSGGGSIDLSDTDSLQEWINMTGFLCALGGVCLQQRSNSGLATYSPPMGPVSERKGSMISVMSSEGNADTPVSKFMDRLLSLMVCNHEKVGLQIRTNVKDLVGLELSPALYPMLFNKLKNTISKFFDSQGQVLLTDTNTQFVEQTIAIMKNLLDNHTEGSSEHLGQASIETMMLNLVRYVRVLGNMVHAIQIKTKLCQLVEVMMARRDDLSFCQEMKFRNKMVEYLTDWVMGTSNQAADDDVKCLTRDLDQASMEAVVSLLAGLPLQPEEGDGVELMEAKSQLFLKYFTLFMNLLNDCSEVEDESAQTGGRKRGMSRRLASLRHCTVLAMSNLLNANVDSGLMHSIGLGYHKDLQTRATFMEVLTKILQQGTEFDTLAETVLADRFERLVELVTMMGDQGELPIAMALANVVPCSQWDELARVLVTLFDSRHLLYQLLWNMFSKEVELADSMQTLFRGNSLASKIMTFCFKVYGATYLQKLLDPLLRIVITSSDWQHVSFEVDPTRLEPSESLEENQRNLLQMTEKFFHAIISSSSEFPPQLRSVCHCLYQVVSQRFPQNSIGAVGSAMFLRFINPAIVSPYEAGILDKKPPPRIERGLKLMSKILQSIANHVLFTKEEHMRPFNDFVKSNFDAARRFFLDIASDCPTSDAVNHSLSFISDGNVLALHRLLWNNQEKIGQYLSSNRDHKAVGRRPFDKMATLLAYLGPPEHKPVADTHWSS
binder,measurement,setting,value
B1,binding result,[1],binds
B2,binding result,[1],binds
B3,stoichiometry N,[2],2
B4,binding result,[3],binds
